Substitutions are numbered along the chain they refer to. Names and notes keep the numbering of the source.
B1: CE115HA000 N53Q one-arm antibody (antibody, human IgG1, kappa, L234A L235A, N297A, name in Kabat numbering)
heavy: QVQLVESGGGVVQPGRSLRLSCAASGFTFSNAWMHWVRQAPGKGLEWVAQIKAKSQNYATYYAESVKGRFTISRDDSKNSLYLQMNSLKTEDTAVYYCRYVHYGAYYGVDAWGQGTTVTVSSASTKGPSVFPLAPSSKSTSGGTAALGCLVKDYFPEPVTVSWNSGALTSGVHTFPAVLQSSGLYSLSSVVTVPSSSLGTQTYICNVNHKPSNTKVDKKVEPKSCDKTHTCPPCPAPEAAGGPSVFLFPPKPKDTLMISRTPEVTCVVVDVSHEDPEVKFNWYVDGVEVHNAKTKPREEQYASTYRVVSVLTVLHQDWLNGKEYKCKVSNKALPAPIEKTISKAKGQPREPQVYTLPPSRCELTKNQVSLSCAVKGFYPSDIAVEWESNGQPENNYKTTPPVLDSDGSFFLVSKLTVDKSRWQQGNVFSCSVMHEALHNHYTQKSLSLSPDYKDDDDK
chain: EPKSSDKTHTCPPCPAPELLGGPSVFLFPPKPKDTLMISRTPEVTCVVVDVSHEDPEVKFNWYVDGVEVHNAKTKPREEQYNSTYRVVSVLTVLHQDWLNGKEYKCKVSNKALPAPIEKTISKAKGQPREPQVCTLPPSRDELTKNQVSLWCLVKGFYPSDIAVEWESNGQPENNYKTTPPVLDSDGSFFLYSKLTVDKSRWQQGNVFSCSVMHEALHNRYTQKSLSLSP
light: DIVMTQSPLSLPVTPGEPASISCRSSQSLVHSNRNTYLHWYQQKPGQAPRLLIYKVSNRFSGVPDRFSGSGSGTDFTLKISRVEAEDVGVYYCGQGTQVPYTFGQGTKLEIKRTVAAPSVFIFPPSDEQLKSGTASVVCLLNNFYPREAKVQWKVDNALQSGNSQESVTEQDSKDSTYSLSSTLTLSKADYEKHKVYACEVTHQGLSSPVTKSFNRGEC
B2: CE115HA000 S52cF one-arm antibody (antibody, human IgG1, kappa, L234A L235A, N297A, name in Kabat numbering)
heavy: B1 heavy with S55F, Q56N
chain: B1 chain
light: B1 light
B3: CE115HA000 Q50A one-arm antibody (antibody, human IgG1, kappa, L234A L235A, N297A, name in Kabat numbering)
heavy: B1 heavy with Q50A, Q56N
chain: B1 chain
light: B1 light
B4: CE115HA000 Q50D one-arm antibody (antibody, human IgG1, kappa, L234A L235A, N297A, name in Kabat numbering)
heavy: B1 heavy with Q50D, Q56N
chain: B1 chain
light: B1 light
B5: CE115HA000 Q50I one-arm antibody (antibody, human IgG1, kappa, L234A L235A, N297A, name in Kabat numbering)
heavy: B1 heavy with Q50I, Q56N
chain: B1 chain
light: B1 light
B6: CE115HA000 R19T one-arm antibody (antibody, human IgG1, kappa, L234A L235A, N297A, name in Kabat numbering)
heavy: B1 heavy with R19T, Q56N
chain: B1 chain
light: B1 light
B7: CE115HA000 N76S one-arm antibody (antibody, human IgG1, kappa, L234A L235A, N297A, name in Kabat numbering)
heavy: B1 heavy with Q56N, N79S
chain: B1 chain
light: B1 light
B8: CE115HA000 N54S one-arm antibody (antibody, human IgG1, kappa, L234A L235A, N297A, name in Kabat numbering)
heavy: B1 heavy with Q56N, N57S
chain: B1 chain
light: B1 light
B9: CE115HA000 Q50Y one-arm antibody (antibody, human IgG1, kappa, L234A L235A, N297A, name in Kabat numbering)
heavy: B1 heavy with Q50Y, Q56N
chain: B1 chain
light: B1 light
B10: CE115HA000 N54F one-arm antibody (antibody, human IgG1, kappa, L234A L235A, N297A, name in Kabat numbering)
heavy: B1 heavy with Q56N, N57F
chain: B1 chain
light: B1 light
B11: CE115HA000 N53W one-arm antibody (antibody, human IgG1, kappa, L234A L235A, N297A, name in Kabat numbering)
heavy: B1 heavy with Q56W
chain: B1 chain
light: B1 light
B12: CE115HA000 N54A one-arm antibody (antibody, human IgG1, kappa, L234A L235A, N297A, name in Kabat numbering)
heavy: B1 heavy with Q56N, N57A
chain: B1 chain
light: B1 light
B13: CE115HA000 S30G one-arm antibody (antibody, human IgG1, kappa, L234A L235A, N297A, name in Kabat numbering)
heavy: B1 heavy with S30G, Q56N
chain: B1 chain
light: B1 light
B14: CE115HA000 N54L one-arm antibody (antibody, human IgG1, kappa, L234A L235A, N297A, name in Kabat numbering)
heavy: B1 heavy with Q56N, N57L
chain: B1 chain
light: B1 light
B15: CE115HA000 N54G one-arm antibody (antibody, human IgG1, kappa, L234A L235A, N297A, name in Kabat numbering)
heavy: B1 heavy with Q56N, N57G
chain: B1 chain
light: B1 light
B16: CE115HA000 N53Y one-arm antibody (antibody, human IgG1, kappa, L234A L235A, N297A, name in Kabat numbering)
heavy: B1 heavy with Q56Y
chain: B1 chain
light: B1 light
B17: CE115HA000 R16E one-arm antibody (antibody, human IgG1, kappa, L234A L235A, N297A, name in Kabat numbering)
heavy: B1 heavy with R16E, Q56N
chain: B1 chain
light: B1 light
B18: CE115HA000 N54Y one-arm antibody (antibody, human IgG1, kappa, L234A L235A, N297A, name in Kabat numbering)
heavy: B1 heavy with Q56N, N57Y
chain: B1 chain
light: B1 light
B19: CE115HA000 N54K one-arm antibody (antibody, human IgG1, kappa, L234A L235A, N297A, name in Kabat numbering)
heavy: B1 heavy with Q56N, N57K
chain: B1 chain
light: B1 light
B20: CE115HA000 S52cD one-arm antibody (antibody, human IgG1, kappa, L234A L235A, N297A, name in Kabat numbering)
heavy: B1 heavy with S55D, Q56N
chain: B1 chain
light: B1 light
B21: CE115HA000 N53S one-arm antibody (antibody, human IgG1, kappa, L234A L235A, N297A, name in Kabat numbering)
heavy: B1 heavy with Q56S
chain: B1 chain
light: B1 light
B22: CE115HA000 R16Q one-arm antibody (antibody, human IgG1, kappa, L234A L235A, N297A, name in Kabat numbering)
heavy: B1 heavy with R16Q, Q56N
chain: B1 chain
light: B1 light
B23: CE115HA000 Q50S one-arm antibody (antibody, human IgG1, kappa, L234A L235A, N297A, name in Kabat numbering)
heavy: B1 heavy with Q50S, Q56N
chain: B1 chain
light: B1 light
B24: CE115HA000 N54D one-arm antibody (antibody, human IgG1, kappa, L234A L235A, N297A, name in Kabat numbering)
heavy: B1 heavy with Q56N, N57D
chain: B1 chain
light: B1 light
B25: CE115HA000 N82aD one-arm antibody (antibody, human IgG1, kappa, L234A L235A, N297A, name in Kabat numbering)
heavy: B1 heavy with Q56N, N86D
chain: B1 chain
light: B1 light
B26: CE115HA000 N54Q one-arm antibody (antibody, human IgG1, kappa, L234A L235A, N297A, name in Kabat numbering)
heavy: B1 heavy with Q56N, N57Q
chain: B1 chain
light: B1 light
B27: CE115HA000 Q50L one-arm antibody (antibody, human IgG1, kappa, L234A L235A, N297A, name in Kabat numbering)
heavy: B1 heavy with Q50L, Q56N
chain: B1 chain
light: B1 light
B28: CE115HA000 Q105E one-arm antibody (antibody, human IgG1, kappa, L234A L235A, N297A, name in Kabat numbering)
heavy: B1 heavy with Q56N, Q114E
chain: B1 chain
light: B1 light
B29: CE115HA000 Q50E one-arm antibody (antibody, human IgG1, kappa, L234A L235A, N297A, name in Kabat numbering)
heavy: B1 heavy with Q50E, Q56N
chain: B1 chain
light: B1 light
B30: CE115HA000 S52cA one-arm antibody (antibody, human IgG1, kappa, L234A L235A, N297A, name in Kabat numbering)
heavy: B1 heavy with S55A, Q56N
chain: B1 chain
light: B1 light
B31: CE115HA000 Q50K one-arm antibody (antibody, human IgG1, kappa, L234A L235A, N297A, name in Kabat numbering)
heavy: B1 heavy with Q50K, Q56N
chain: B1 chain
light: B1 light
B32: CE115HA000 S30D one-arm antibody (antibody, human IgG1, kappa, L234A L235A, N297A, name in Kabat numbering)
heavy: B1 heavy with S30D, Q56N
chain: B1 chain
light: B1 light

molecular target: T1, CD3ε homodimer protein (human, UniProt P07766 23-126, limits assumed, sulfo-tag or biotin label in the ECL assays; amine-coupled to the chip in SPR); assay: SPR Biacore T200; CD3ε homodimer on CM4 chip;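 further: Single-residue variant antibodies injected as analyte over CD3ε homodimer immobilized by amine coupling, run at 25 °C in HBS-EP+ buffer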
T1 construct: also called human CD3ε homodimer protein; CD3 (CD3ε)
T1 sequence (P07766 23-126 limits assumed): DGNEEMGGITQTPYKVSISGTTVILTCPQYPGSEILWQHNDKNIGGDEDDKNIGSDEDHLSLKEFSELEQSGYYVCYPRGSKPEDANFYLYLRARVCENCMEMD

In order of rising “ratio of amounts bound Z=Y/X (altered form / CE115HA000)” value:
1. B22  0
2. B27  0.23
3. B3  0.24
4. B23  0.24
5. B9  0.25
6. B29  0.26
7. B4  0.27
8. B31  0.33
9. B5  0.4
10. B20  0.6
11. B24  0.62
12. B16  0.63
13. B25  0.73
14. B6  0.8
15. B21  0.83
16. B8  0.84
17. B26  0.84
18. B12  0.86
19. B32  0.86
20. B11  0.88
21. B17  0.88
22. B7  0.92
23. B14  0.94
24. B28  0.94
25. B30  0.96
26. B15  0.98
27. B13  1.01
28. B18  1.03
29. B1  1.1
30. B10  1.12
31. B2  1.13
32. B19  1.2

From patent US20260049138A1 (Chugai, published 2026)
